Measured values published in patent US20200392227A1 (LYVGEN BIOPHARMA, published 2020).
Where two headings read alike, the source gives them in different places. Blank lines part the entries; values can stand above or below the binder they belong to.

What was measured:
[1] = molecular target: T1, human FcγRIIC expressed on CHO cells (human, UniProt P31995 43-323); assay: FACS, CHO cells expressing FcγRIIC
T1 construct: whole, on cells
T1 sequence (looked up): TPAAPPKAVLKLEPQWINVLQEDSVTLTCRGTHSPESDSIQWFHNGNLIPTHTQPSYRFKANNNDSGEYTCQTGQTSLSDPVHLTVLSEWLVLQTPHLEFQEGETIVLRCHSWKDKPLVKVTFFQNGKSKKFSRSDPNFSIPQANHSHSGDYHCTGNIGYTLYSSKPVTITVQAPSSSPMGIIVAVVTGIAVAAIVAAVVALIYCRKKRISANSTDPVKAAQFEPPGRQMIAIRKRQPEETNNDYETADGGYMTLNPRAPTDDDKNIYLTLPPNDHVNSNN
Method: FIGS. 1A-1W are charts showing binding activity of various IgG variants as indicated to different types of Fcγ receptors expressed on CHO-K1 cells at the various concentrations as indicated. The concentrations of each IgG variant, from left to right, are 0 μg/ml, 0.3 μg/ml, 1 μg/ml, 3 μg/ml, and 10 μg/ml in FIGS. 1A-1C, 1E-J, 1L-1M, 1P-1R, and 1T-1V. For FIGS. 1D, 1K, 10, 1S, and 1w the bars, from left to right, correspond to the following concentrations of IgG variant: 0.3 μg/ml, 1 μg/ml, 3 μg/ml, and 10 μg/ml.
For FACS analysis of the IgG mutants' binding to different FcγRs, FcγR overexpressing CHO cells were harvested using trypsin-EDTA and were suspended in cold staining buffer (3% BSA in PBS). Test IgG mutants, which were diluted in staining buffer, were added into the cells. The mixture was incubated 4° C. for 2 hours, and then washed twice with cold staining buffer and re-suspended in PE-labeled anti-human IgG followed by incubation at 4° C. for 2 hours. The mixture was washed twice with staining buffer and re-suspended in 2% PFA in PBS for FACS.

[2] = molecular target: T2, human FcRI protein (MednaBio, E1031) (human, UniProt P12314 16-288, limits assumed); assay: BLI
T2 construct: Bought; loaded on anti-penta-HIS biosensors; also called FcγRI
T2 sequence (P12314 16-288 limits assumed): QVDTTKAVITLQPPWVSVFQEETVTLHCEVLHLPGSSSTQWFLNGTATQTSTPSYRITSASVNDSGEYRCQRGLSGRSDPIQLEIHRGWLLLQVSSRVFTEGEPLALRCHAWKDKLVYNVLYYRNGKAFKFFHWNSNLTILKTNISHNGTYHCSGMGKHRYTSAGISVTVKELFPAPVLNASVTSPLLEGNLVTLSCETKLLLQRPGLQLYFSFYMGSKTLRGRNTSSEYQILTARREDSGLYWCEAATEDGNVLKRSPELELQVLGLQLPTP
Method in brief: (§1)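 Binding was measured by biolayer interferometry on an Octet Red96 System, with commercial human Fc receptor proteins loaded at 20 μg/mL onto anti-penta-HIS biosensors. Sensors were dipped into an 8-point 1:3 dilution series of test IgG starting at 300 nM in PBS with 0.1% BSA and 0.02% Tween-20. Fcγ receptor assays ran at pH 7.2 and FcRn assays at pH 6. Kd, kon and koff came from global fitting to a 1:1 binding model.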

[3] = molecular target: T3, human FcRIIA protein (MednaBio, E1033) (human, UniProt P12318 34-218, limits assumed); assay: BLI
T3 construct: Bought; also called FcγRIIA
T3 sequence (looked up): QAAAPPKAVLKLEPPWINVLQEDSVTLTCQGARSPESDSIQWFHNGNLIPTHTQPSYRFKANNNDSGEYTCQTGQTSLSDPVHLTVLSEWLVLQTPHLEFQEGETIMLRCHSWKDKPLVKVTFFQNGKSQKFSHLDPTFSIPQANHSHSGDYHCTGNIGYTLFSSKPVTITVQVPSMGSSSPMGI
Method in brief: as §1

[4] = molecular target: T4, human FcRn protein (MednaBio, E1032) (human, UniProt P55899 24-297; P61769 21-119); assay: BLI
T4 construct: Bought; assays at pH 6
Method in brief: as §1

[5] = molecular target: T5, human FcRIIIA-F158 protein (MednaBio, E1036) (human, UniProt P08637 17-208); assay: BLI
T5 construct: Bought; also called FcγRIIIA(F)
T5 sequence (P08637 17-208 limits assumed): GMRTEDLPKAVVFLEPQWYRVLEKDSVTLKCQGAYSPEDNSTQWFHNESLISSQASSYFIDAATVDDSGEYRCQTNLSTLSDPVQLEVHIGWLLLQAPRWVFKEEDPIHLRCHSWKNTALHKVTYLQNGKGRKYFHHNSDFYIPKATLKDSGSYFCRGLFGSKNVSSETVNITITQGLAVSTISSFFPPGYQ
Method in brief: as §1

[6] = molecular target: T6, human FcRIIIA-V158 protein (MednaBio, E1035) (human, UniProt P08637 17-208); assay: BLI
T6 construct: Bought; also called FcγRIIIA(V); FcgRIIIA(V)
T6 sequence (P08637 17-208 F176V): as the sequence (P08637 17-208 limits assumed) above, with F160V counted along it
Method in brief: as §1

[7] = molecular target: T7, human FcRIIIB protein (MednaBio, E1037) (human, UniProt O75015 17-200); assay: BLI
T7 construct: Bought; also called FcγRIIIB; FcgRIIIB
T7 sequence (O75015 17-200 limits assumed): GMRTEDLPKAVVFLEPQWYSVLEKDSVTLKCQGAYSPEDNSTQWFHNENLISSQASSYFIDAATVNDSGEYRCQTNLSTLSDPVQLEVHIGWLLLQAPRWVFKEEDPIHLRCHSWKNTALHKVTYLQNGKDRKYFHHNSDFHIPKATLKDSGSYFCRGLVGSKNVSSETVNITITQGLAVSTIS
Method in brief: as §1

[8] = molecular target: T8, human FcRIIB/C protein (MednaBio, E1034) (human, UniProt P31994 43-217, limits assumed); assay: BLI
T8 construct: Bought as FcRIIB/C; also called FcγRIIB; CD32B
T8 sequence (looked up): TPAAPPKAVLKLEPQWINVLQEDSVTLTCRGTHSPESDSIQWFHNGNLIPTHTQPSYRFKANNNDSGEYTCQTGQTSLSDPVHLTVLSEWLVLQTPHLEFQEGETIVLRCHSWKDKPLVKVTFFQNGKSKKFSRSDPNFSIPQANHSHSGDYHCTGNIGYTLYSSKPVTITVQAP
Method in brief: as §1

[9] = molecular target: T2, human FcRI protein (MednaBio, E1031); assay: BLI; remark: listed apart in the source
Method in brief: as §1

[10] = molecular target: T3, human FcRIIA protein (MednaBio, E1033); assay: BLI; remark: listed apart in the source
Method in brief: as §1

[11] = molecular target: T4, human FcRn protein (MednaBio, E1032); assay: BLI; remark: listed apart in the source
Method in brief: as §1

[12] = molecular target: T5, human FcRIIIA-F158 protein (MednaBio, …); assay: BLI; remark: listed apart in the source
Method in brief: as §1

[13] = molecular target: T6, human FcRIIIA-V158 protein (MednaBio, …); assay: BLI; remark: listed apart in the source
Method in brief: as §1

[14] = molecular target: T7, human FcRIIIB protein (MednaBio, E1037); assay: BLI; remark: listed apart in the source
Method in brief: as §1

[15] = molecular target: T8, human FcRIIB/C protein (MednaBio, E1034); assay: BLI; remark: listed apart in the source
Method in brief: as §1

Kd [2]: 605 nM
koff [2]: 0.0617 s⁻¹
kon [2]: 102000 M⁻¹ s⁻¹
Kd [3]: 54.5 nM
koff [3]: 0.0256 s⁻¹
kon [3]: 469000 M⁻¹ s⁻¹
Kd [4]: 21.9 nM
koff [4]: 0.0152 s⁻¹
kon [4]: 698000 M⁻¹ s⁻¹
Kd [5]: 145 nM
koff [5]: 0.0678 s⁻¹
kon [5]: 468000 M⁻¹ s⁻¹
Kd [6]: 202 nM
koff [6]: 0.0596 s⁻¹
kon [6]: 296000 M⁻¹ s⁻¹
Kd [7]: 132 nM
koff [7]: 0.0579 s⁻¹
kon [7]: 437000 M⁻¹ s⁻¹
Kd [8]: 30.7 nM
koff [8]: 0.0123 s⁻¹
kon [8]: 401000 M⁻¹ s⁻¹
B3: anti-CD137 IgG4 with Fc variant G4mPE (antibody)
heavy: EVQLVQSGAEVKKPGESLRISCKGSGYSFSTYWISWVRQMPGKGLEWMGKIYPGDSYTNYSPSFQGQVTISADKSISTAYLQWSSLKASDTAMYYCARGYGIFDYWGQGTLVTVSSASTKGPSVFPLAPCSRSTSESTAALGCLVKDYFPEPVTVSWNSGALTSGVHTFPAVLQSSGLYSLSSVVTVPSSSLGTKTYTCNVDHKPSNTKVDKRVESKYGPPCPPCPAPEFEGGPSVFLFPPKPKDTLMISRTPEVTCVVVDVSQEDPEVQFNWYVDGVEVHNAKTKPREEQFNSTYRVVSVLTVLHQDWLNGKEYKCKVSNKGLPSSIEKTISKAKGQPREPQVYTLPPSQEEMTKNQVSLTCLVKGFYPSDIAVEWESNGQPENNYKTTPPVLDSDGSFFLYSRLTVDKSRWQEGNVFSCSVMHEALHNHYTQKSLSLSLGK
light: SYELTQPPSVSVSPGQTASITCSGDNIGDQYAHWYQQKPGQSPVLVIYQDKNRPSGIPERFSGSNSGNTATLTISGTQAMDEADYYCATYTGFGSLAVFGGGTKLTVLGQPKAAPSVTLFPPSSEELQANKATLVCLISDFYPGAVTVAWKADSSPVKAGVETTTPSKQSNNKYAASSYLSLTPEQWKSHRSYSCQVTHEGSTVEKTVAPTECS
notes: also called G4PE; copies: 2 + 2

Kd [9]: 120 nM
koff [9]: 0.06 s⁻¹
kon [9]: 500000 M⁻¹ s⁻¹
Kd [10]: 480 nM
koff [10]: 0.11 s⁻¹
kon [10]: 230000 M⁻¹ s⁻¹
Kd [11]: 21 nM
koff [11]: 0.013 s⁻¹
kon [11]: 600000 M⁻¹ s⁻¹
binding result [12]: no binding (tested: 300 nM)
binding result [13]: no binding (tested: 300 nM)
binding result [14]: no binding (tested: 300 nM)
Kd [15]: 700 nM
koff [15]: 0.38 s⁻¹
kon [15]: 540000 M⁻¹ s⁻¹
B5: anti-CD137 IgG1 with Fc variant G1m15 (antibody)
heavy: EVQLVQSGAEVKKPGESLRISCKGSGYSFSTYWISWVRQMPGKGLEWMGKIYPGDSYTNYSPSFQGQVTISADKSISTAYLQWSSLKASDTAMYYCARGYGIFDYWGQGTLVTVSSASTKGPSVFPLAPSSKSTSGGTAALGCLVKDYFPEPVTVSWNSGALTSGVHTFPAVLQSSGLYSLSSVVTVPSSSLGTQTYICNVNHKPSNTKVDKKVEPKSCDKTHTCPPCPAPELLSVFLFPPKPKDTLMISRTPEVTCVVVDVSHEDPEEKFNWYVDGVEVHNAKTKPREEQYNSTYRVVSVLTVLHQDWLNGKEYKCKVSNKALPAPIEKTISKAKGQPREPQVYTLPPSREEMTKNQVSLTCLVKGFYPSDIAVEWESNGQPENNYKTTPPVLDSDGSFFLYSKLTVDKSRWQQGNVFSCSVMHEALHNHYTQKSLSLSPGK
light: SYELTQPPSVSVSPGQTASITCSGDNIGDQYAHWYQQKPGQSPVLVIYQDKNRPSGIPERFSGSNSGNTATLTISGTQAMDEADYYCATYTGFGSLAVFGGGTKLTVLGQPKAAPSVTLFPPSSEELQANKATLVCLISDFYPGAVTVAWKADSSPVKAGVETTTPSKQSNNKYAASSYLSLTPEQWKSHRSYSCQVTHEGSTVEKTVAPTECS
notes: copies: 2 + 2

More lines, now with the values behind:

B1: anti-CD137 IgG4 with Fc variant G4m7 (antibody)
heavy: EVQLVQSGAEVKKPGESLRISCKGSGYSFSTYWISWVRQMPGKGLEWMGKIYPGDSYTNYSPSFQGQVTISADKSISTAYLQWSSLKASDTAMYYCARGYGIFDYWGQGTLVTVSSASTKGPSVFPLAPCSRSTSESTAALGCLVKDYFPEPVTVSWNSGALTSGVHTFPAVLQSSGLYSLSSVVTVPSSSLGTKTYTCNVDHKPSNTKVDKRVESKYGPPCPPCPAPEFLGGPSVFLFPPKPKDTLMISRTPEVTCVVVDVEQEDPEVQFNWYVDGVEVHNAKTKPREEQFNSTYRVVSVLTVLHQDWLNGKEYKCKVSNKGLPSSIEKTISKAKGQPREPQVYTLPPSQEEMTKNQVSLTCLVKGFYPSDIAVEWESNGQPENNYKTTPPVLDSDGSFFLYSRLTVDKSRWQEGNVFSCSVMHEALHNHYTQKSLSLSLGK
light: SYELTQPPSVSVSPGQTASITCSGDNIGDQYAHWYQQKPGQSPVLVIYQDKNRPSGIPERFSGSNSGNTATLTISGTQAMDEADYYCATYTGFGSLAVFGGGTKLTVLGQPKAAPSVTLFPPSSEELQANKATLVCLISDFYPGAVTVAWKADSSPVKAGVETTTPSKQSNNKYAASSYLSLTPEQWKSHRSYSCQVTHEGSTVEKTVAPTECS
notes: copies: 2 + 2
binding result [1]: binds
Kd [2]: 2.1 nM
koff [2]: 0.0011 s⁻¹
kon [2]: 540000 M⁻¹ s⁻¹
Kd [3]: 210 nM
koff [3]: 0.034 s⁻¹
kon [3]: 160000 M⁻¹ s⁻¹
Kd [4]: 23 nM
koff [4]: 0.012 s⁻¹
kon [4]: 520000 M⁻¹ s⁻¹
binding result [5]: no binding (tested: 300 nM)
binding result [6]: no binding (tested: 300 nM)
binding result [7]: no binding (tested: 300 nM)
Kd [8]: 45 nM
koff [8]: 0.02 s⁻¹
kon [8]: 440000 M⁻¹ s⁻¹

B2: anti-CD137 IgG1 with Fc variant G1m17 (antibody)
heavy: EVQLVQSGAEVKKPGESLRISCKGSGYSFSTYWISWVRQMPGKGLEWMGKIYPGDSYTNYSPSFQGQVTISADKSISTAYLQWSSLKASDTAMYYCARGYGIFDYWGQGTLVTVSSASTKGPSVFPLAPSSKSTSGGTAALGCLVKDYFPEPVTVSWNSGALTSGVHTFPAVLQSSGLYSLSSVVTVPSSSLGTQTYICNVNHKPSNTKVDKKVEPKSCDKTHTCPPCPAPELLSVFLFPPKPKDTLMISRTPEVTCVVVDVEHEDPEVKFNWYVDGVEVHNAKTKPREEQYNSTYRVVSVLTVLHQDWLNGKEYKCKVSNKALPAPIEKTISKAKGQPREPQVYTLPPSREEMTKNQVSLTCLVKGFYPSDIAVEWESNGQPENNYKTTPPVLDSDGSFFLYSKLTVDKSRWQQGNVFSCSVMHEALHNHYTQKSLSLSPGK
light: SYELTQPPSVSVSPGQTASITCSGDNIGDQYAHWYQQKPGQSPVLVIYQDKNRPSGIPERFSGSNSGNTATLTISGTQAMDEADYYCATYTGFGSLAVFGGGTKLTVLGQPKAAPSVTLFPPSSEELQANKATLVCLISDFYPGAVTVAWKADSSPVKAGVETTTPSKQSNNKYAASSYLSLTPEQWKSHRSYSCQVTHEGSTVEKTVAPTECS
notes: copies: 2 + 2
Kd [9]: 88 nM
koff [9]: 0.041 s⁻¹
kon [9]: 460000 M⁻¹ s⁻¹
Kd [10]: 250 nM
koff [10]: 0.059 s⁻¹
kon [10]: 240000 M⁻¹ s⁻¹
Kd [11]: 10.7 nM
koff [11]: 0.00764 s⁻¹
kon [11]: 715000 M⁻¹ s⁻¹
binding result [12]: no binding (tested: 300 nM)
binding result [13]: no binding (tested: 300 nM)
binding result [14]: no binding (tested: 300 nM)
Kd [15]: 180 nM
koff [15]: 0.043 s⁻¹
kon [15]: 240000 M⁻¹ s⁻¹

B4: anti-CD137 IgG4 with Fc variant G4m8 (antibody)
heavy: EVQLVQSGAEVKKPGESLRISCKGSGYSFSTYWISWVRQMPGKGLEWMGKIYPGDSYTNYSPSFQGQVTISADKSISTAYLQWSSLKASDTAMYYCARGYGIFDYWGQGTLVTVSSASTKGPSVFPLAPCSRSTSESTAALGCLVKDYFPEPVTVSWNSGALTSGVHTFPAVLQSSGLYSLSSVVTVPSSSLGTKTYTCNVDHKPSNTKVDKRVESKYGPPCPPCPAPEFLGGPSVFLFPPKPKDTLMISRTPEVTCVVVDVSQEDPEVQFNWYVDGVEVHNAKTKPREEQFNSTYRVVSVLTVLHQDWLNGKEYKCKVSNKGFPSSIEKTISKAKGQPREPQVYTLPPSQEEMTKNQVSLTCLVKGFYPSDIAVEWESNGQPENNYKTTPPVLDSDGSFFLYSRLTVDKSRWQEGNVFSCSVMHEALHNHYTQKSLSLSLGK
light: SYELTQPPSVSVSPGQTASITCSGDNIGDQYAHWYQQKPGQSPVLVIYQDKNRPSGIPERFSGSNSGNTATLTISGTQAMDEADYYCATYTGFGSLAVFGGGTKLTVLGQPKAAPSVTLFPPSSEELQANKATLVCLISDFYPGAVTVAWKADSSPVKAGVETTTPSKQSNNKYAASSYLSLTPEQWKSHRSYSCQVTHEGSTVEKTVAPTECS
notes: copies: 2 + 2
Kd [2]: 3.8 nM
koff [2]: 0.0028 s⁻¹
kon [2]: 720000 M⁻¹ s⁻¹
Kd [3]: 260 nM
koff [3]: 0.1 s⁻¹
kon [3]: 390000 M⁻¹ s⁻¹
Kd [4]: 20 nM
koff [4]: 0.012 s⁻¹
kon [4]: 610000 M⁻¹ s⁻¹
binding result [5]: no binding (tested: 300 nM)
binding result [6]: no binding (tested: 300 nM)
binding result [7]: no binding (tested: 300 nM)
Kd [8]: 89 nM
koff [8]: 0.048 s⁻¹
kon [8]: 530000 M⁻¹ s⁻¹
